These results are taken from the DeepSol protein solubility set.

This series can be described thus: soluble on expression in E. coli; label from the status in PepcDB or PDB records.
“MGSDKIHHHHHHMGMQARYDGVAVCAPITVPYVRFSPESAHWWTGAALRALGQKTGLNAGDIDGFCFASFSSAPDTVVGMVQHLGLSPRWMDHIPTGGASGIMALRRAARAVQCGDAEVVACVAADTNQIDSYRQTLAGFSRFSQDATYPYGFGGPNATFALITDNFMRQFGTTRETFGKLCVAQRENALSNPLALMKKPLTIEHYMNARPISDPVHLFDCVMPCAGAEAFLVTTPDKAEQLGLSTARILSTIERHNAFADDTVQFRGGWERDQEALWDRAGCGPGDVQCVQVYDDYPVIVAMQLADLGFCSKPGLNDFIAANEFTISGSLPLNTNGGQLSAGQAGAAGGFQNVTEGLRQILQCPLGEQVSDAHRALVSGFGLVNYDRGTCTGAAVLQREALR”: the “soluble on expression in E. coli” value is “not soluble”. Take “MAPINGIRDDDAASIRLRDSFRDEVSKRMGELLLKGQTMLDEYCPTCSGILMEDRALVRRCVTCELFREKSSVIVGEVSLQDEDLNEAVNNKIPTPAAPVNKPAKKAVLQKSAPAKKKEAVPAAAEPSSSDTIESATTAVLQKLEWATDRLNSTEEVARVMDFLSVIQKSAETLKALRI”: the “soluble on expression in E. coli” value is “not soluble”. As to “CIGLVNPKTPENVGSVMRAAGCYGVNSVFYTGKRYDIAKQFCTDTKSQHLNLPLIGVEDLRDIVPLDCVPVAVDLIEGAKPLPDYKHPPRAFYIFGPEDGTLKKEITDFCRETIYVPTNGCMNLAAAVNVIMYDRMAK”, the “soluble on expression in E. coli” value is listed as “not soluble”.

As to “MGSDKIHHHHHHMCPARLRTPRTASLPTHRRSAMTTANPLNTSFTSADAAELYQVPNWSGGWFRVSDKGLMEATPAPGLHASLRAIVDEIVDRGESLPVILRFPQVLAGRVKHLNEAFQAAINEYNYSGHYQGVFPIKVNQRRAVVETVAAAGYDYAHGLEAGSKAELALCLAQKMHPDALLCCNGFKDDGFIKLALWGRTLGKNVVITIEKFTELDRILKQAKALGVKPAVGVRFKLHARGSGQWEESGGDQAKFGLNAYELLRVVERLKEENMLDSLVMLHTHIGSQITDIRRVKVAVREAAQTYAGLIAAGADLKYLNVGGGLGVDYDGSKTTFYASMNYTVKEYAADIVYTVQEVCKAREVPEPVIVSESGRALTAHHAVLILPVVDVTGPTRNLEDQELTVPGEDSHQIVRDMYETLENISMRNYRESYNDAVGDKQTLHNLFDLGYVTLEDRARGEALFNAILRKIAKLIQGEKYVPDELEDLQKVLADKFICNFSLFQSLPDNWAIGALFPIVPLDRLNEQPTRQATLVDITCDSDGKVEKFIDLRDVKATLPLHEPGDRPYYLGAFLMGAYQDVLGSAHNLFGKVSEAHVTVRPGGRFNIDLFVRGQKARRMIESMGYEEPMLRDAIEDQADAAIGRGTLTQEQEHELLEDYGEELLGYTYLEYES”, the “soluble on expression in E. coli” value was “not soluble”. On to “MSLSKFTEMMKNRRSIYALGENLPISKEEVTALVKEVVRESPTAFNSQTQRVVFLFGDAHKKLWAMTEDALKPLTPAEAFPNTQAKLQGFAAGAGTILFFEDTDIVKNLQDSFPLYADNFPVWSEQATGLTQANVWTALAQENIGANLQHYNPVIDEAVAAEWSIPANWNLRAQMVIGSIEAPAGEKEYMEDSARFKEFNEGGSHHHHHH”, for which the “soluble on expression in E. coli” value is recorded as “soluble”. In the case of “MGSDKIHHHHHHMKGFDAKFRDFPDYIVGITKEIWEDRGIATLHEYYAEDIVVRSPASVVTGNQGVIAATMATLAEFPDRVLLGEDVIWSGTPEDGMLSSHRIISQATHAGDGVYGAATGKRLEYRILADCHAKNNAIDDEWLIRDQTAIVTQLGWTPRDYAADLIMREGGPEACVKPLTPDTDQPGPYKGRGNDNPWGERLADVLTRIMGADMAAIPEVYDRACHLEYPGHVTAHGPAEADRFWMSLRAAFPNAAFTIDHQIGREDDHMPPRAAIRWSLHGTHEGWGGFGQPTGAEVYIVGITHAEFGQVGTAEPKLRREYTLFDETSVWKQILLHEAAK” it was “not soluble”; in that of “MVSQVRQNYHSDCEAAVNRMLNLELYASYTYSSMYAFFDRDDVALHNVAEFFKEHSHEEREHAEKFMKYQNKRGGRVVLQDIKKPERDEWGNTLEAMQAALQLEKTVNQALLDLHKLATDKVDPHLCDFLESEYLEEQVKDIKRIGDFITNLKRLGLPENGMGEYLFDKHSVKESS”, “soluble”; in that of “FPDGTLGMDAAVQEDHDNGTQLDSLTLASINTDFAFSLYKELVLKNPDTNIVFSPLSISAALALVSLGAKGNTLEEILEGLKFNLTETSEADIHQGFGHLLQRLNQPKDQVQISTGSALFIEKRQQILTEFQEKAKTLYQAEAFTADFQQPRQAKKLINDYVRKQTQGMIKELVSDLDKRTLMVLVNYIYFKAKWKVPFDPLDTFKSEFYCGKRRPVIVPMMSMEDLTTPYFRDEELSCTVVELKYTGNASALFILPDQGRMQQVEASLQPETLRKWKNSLKPRMIDELHLPKFSISTDYSLEDVLSKLGIREVFSTQADLSAITGTKDLRVSQVVHKAVLDVAETGTEAAAATGVKFVPMSAKLYPLTVYFNRPFLIMIFDTETEIAPFIAKIANPK”, “soluble”. Under “MSLKALIFDMDGVLVDSMPFHAAAWKKAFLEMGMEIQDEDIYAIEGSNPRNGLPLLIRKARKEPEDFDFEAITSIYRQEFNRIFKLKAFDGMKECLEFLKSRFLLSVVSGSDRLIVNGIVDQLFPGIFDTVVTGDDVLNSKPDPDPFLKAVELLNVGKEECVVIENAVLGVEAAKKADIYCIGVPTYVKPSELDRADLVVGNHQKLMEHLLSLEPLFSPEFIPGRREGHHHHHH” stands “soluble”; under “MITCGQVSSSLAPCIPYVRGGGAVPPACCNGIRNVNNLARTTPDRQAACNCLKQLSASVPGVNPNNAAALPGKCGVSIPYKISASTNCATVK”, “soluble”. In the case of “GTKQEKTILNMARFIRSQALTILEKANELDADEIADIAESIHDHADEIYRSALARFGDDGENL” it was “soluble”; in that of “MSKLQGKKITPMPISAGITVVDLINEYFTAYNSARLREACKLLSQDIFQAGVTVGVSLSGAMTPAGFGVSALAPLIRHGFIDWMISTGANLYHDVHYALGFELFAGSPFLDDVKLREEGTIRIYDIIFGYDVLLETDAFIRKVLQAEPFQKRMGTAEFHYLLGKYVREVEKQLGVQHSCLLATAYEYGVPIYTSSPGDSSIGMNVAALALEGSRLVLDPAIDVNETSAIAYGARETDGKSAAVILGGGSPKNFLLQTQPQIHEVLGLEERGHNFFVQFTDARPDTGGLSGATPAEAVSWGKIDPDELPSTIVCYTDSTIAIPLVTAYVLNQCQARPVKRLYDRREALLETLQKDYLAAKDKPVVKEEGTEEVPSYRCGTPIKR”, “not soluble”. Regarding “MSLSLFDMFKVGIGPSSSHTVGPMKAGKQFVDDLVEKGLLDNVTRVAVDVYGSLSLTGKGHHTDIAIIMGLAGNEPATVDIDSIPGFIRDVETRERLLLAQGRHEVDFPKDDGMRFHNGNLPLHENGMQIHAWHDDTVIYSKTYYSIGGGFIVDEEHFGQEATNEVTVPYPFKSAKEMLEYCNSTGLSLSGMVMQNELALHSKKEIEEYFGHVWQTMQACIDRGMNTEGVLPGPLRVPRRASALRRMLVSSDKLSSDPMNVIDWVNMFALAVNEENAAGGRVVTAPTNGACGIVPAVLAYYDHFIESVSPDIYTRYFLAAGAIGALYKMNASISGAEVGCQGEVGVACSMAAAGLAELLGASPEQVCVAAEIGMEHNLGLTCDPVAGQVQVPCIERNAIASVKAINAARMAMRRTSAPRVSLDKVIETMYETGKDMNAKYRETSRGGLAIKVQCDEGHHHHHH”, the “soluble on expression in E. coli” value was “soluble”. In the case of “MSLNYRFRFAPYQRPFKTPLQTHHGLWTVREGIMLSLRDERGRITQGEIVPLPWFGTETLEEAIAFCAAFGGNITSEQIAAIPDALPACQFGFETAQLNLASTENLVSLPPTKFCQLIRRSPTMFQDLQTLLQQGFRTFKLKIALDIPATEIALCQQILETLPADGRLRLDANGGLTLEQVKQWLDWGESQAKLEFIEQPLAPAHFSNLLQLNAEFQTQIALDESVSQVASLEHCYAQGWRGVFVIKLAIAGFPSRLQDVCQTKKLDFVLSTVFETAVGQRALLNFSQDFVQSRRALGMGGTQWIEGHHHHHH” it was “soluble”.
